B1: "Lethal(3)malignant brain tumor-like protein 1" (Homo sapiens), Q9Y468 (parent)
chain: MHLVAGDSPGSGPHLPATAFIIPASSATLGLPSSALDVSCFPREPIHVGAPEQVAGCEPVSATVLPQLSAGPASSSTSTVRLLEWTEAAAPPPGGGLRFRISEYKPLNMAGVEQPPSPELRQEGVTEYEDGGAPAGDGEAGPQQAEDHPQNPPEDPNQDPPEDDSTCQCQACGPHQAAGPDLGSSNDGCPQLFQERSVIVENSSGSTSASELLKPMKKRKRREYQSPSEEESEPEAMEKQEEGKDPEGQPTASTPESEEWSSSQPATGEKKECWSWESYLEEQKAITAPVSLFQDSQAVTHNKNGFKLGMKLEGIDPQHPSMYFILTVAEVCGYRLRLHFDGYSECHDFWVNANSPDIHPAGWFEKTGHKLQPPKGYKEEEFSWSQYLRSTRAQAAPKHLFVSQSHSPPPLGFQVGMKLEAVDRMNPSLVCVASVTDVVDSRFLVHFDNWDDTYDYWCDPSSPYIHPVGWCQKQGKPLTPPQDYPDPDNFCWEKYLEETGASAVPTWAFKVRPPHSFLVNMKLEAVDRRNPALIRVASVEDVEDHRIKIHFDGWSHGYDFWIDADHPDIHPAGWCSKTGHPLQPPLGPREPSSASPGGCPPLSYRSLPHTRTSKYSFHHRKCPTPGCDGSGHVTGKFTAHHCLSGCPLAERNQSRLKAELSDSEASARKKNLSGFSPRKKPRHHGRIGRPPKYRKIPQEDFQTLTPDVVHQSLFMSALSAHPDRSLSVCWEQHCKLLPGVAGISASTVAKWTIDEVFGFVQTLTGCEDQARLFKDEARIVRVTHVSGKTLVWTVAQLGDLVCSDHLQEGKGILETGVHSLLCSLPTHLLAKLSFASDSQY

Variants of: B1
Conditions: with h14_human H1-4, P10412
Chain of h14_human H1-4, P10412 (P10412 whole entry): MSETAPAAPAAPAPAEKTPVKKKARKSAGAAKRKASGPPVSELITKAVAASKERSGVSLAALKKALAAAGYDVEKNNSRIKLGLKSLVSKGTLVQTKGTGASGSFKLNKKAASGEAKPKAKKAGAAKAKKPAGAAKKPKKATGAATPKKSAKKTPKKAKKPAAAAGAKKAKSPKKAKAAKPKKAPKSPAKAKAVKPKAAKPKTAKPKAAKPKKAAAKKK

Variant | effect of a mutation on the interaction
D423N | decreasing interaction

Variants of: B1
Conditions: with h4_human H4C16, P62805

Variant | effect of a mutation on the interaction
D423N | decreasing interaction

Variants of: B1
Conditions: with h14_human H1-4, P10412
Remark: another data set of the same source

Variant | effect of a mutation on the interaction
F447A | decreasing interaction

— IntAct's records for PubMed 17540172
